Results on three substances are retold here after PMC10810197, “A KDPG sensor RccR governs Pseudomonas aeruginosa carbon metabolism and aminoglycoside antibiotic tolerance” (Nucleic Acids Research, 2023).

Numbering of substitutions follows the chain as printed.

In series [1] the target is T1, RccR S139A S139A (Pseudomonas aeruginosa PAO1) (UniProt Q9HTC8).
T1 sequence: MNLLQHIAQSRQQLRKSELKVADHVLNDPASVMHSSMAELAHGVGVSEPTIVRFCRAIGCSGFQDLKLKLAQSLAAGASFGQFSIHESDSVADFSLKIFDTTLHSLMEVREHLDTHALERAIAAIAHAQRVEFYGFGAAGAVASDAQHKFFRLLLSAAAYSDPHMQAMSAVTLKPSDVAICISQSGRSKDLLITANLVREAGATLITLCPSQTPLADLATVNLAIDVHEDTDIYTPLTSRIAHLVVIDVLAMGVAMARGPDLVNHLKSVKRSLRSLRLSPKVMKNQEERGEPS
The series can be described thus: EMSA. Conditions: EMSA: 10 nM FAM-DNA, 20 mM Tris-HCl pH 8.5, 150 mM KCl, 5 mM MgCl2, 1 mM EDTA, 1 mM DTT, 0.8% Tween 20, 2.5% glycerol, on ice 30 min; 6% native PAGE, 0.5x TBE.

Series [2] concerns the target T2, RccR H164A H164A (Pseudomonas aeruginosa PAO1) (UniProt Q9HTC8).
T2 sequence: T1 sequence with A139S, H164A
Nature of the series: EMSA. Conditions: EMSA: 10 nM FAM-DNA, 20 mM Tris-HCl pH 8.5, 150 mM KCl, 5 mM MgCl2, 1 mM EDTA, 1 mM DTT, 0.8% Tween 20, 2.5% glycerol, on ice 30 min; 6% native PAGE, 0.5x TBE.

In series [3] the target is T3, RccR WT (Pseudomonas aeruginosa PAO1) (UniProt Q9HTC8).
T3 sequence: T1 sequence with A139S
Nature of the series: EMSA. The note with it: EMSA: 10 nM FAM-DNA, 20 mM Tris-HCl pH 8.5, 150 mM KCl, 5 mM MgCl2, 1 mM EDTA, 1 mM DTT, 0.8% Tween 20, 2.5% glycerol, on ice 30 min; 6% native PAGE, 0.5x TBE.

Series [4] has as its target T4, RccR H148A H148A (Pseudomonas aeruginosa PAO1) (UniProt Q9HTC8).
T4 sequence: T1 sequence with A139S, H148A
Nature of the series: EMSA. The note with it: EMSA: 10 nM FAM-DNA, 20 mM Tris-HCl pH 8.5, 150 mM KCl, 5 mM MgCl2, 1 mM EDTA, 1 mM DTT, 0.8% Tween 20, 2.5% glycerol, on ice 30 min; 6% native PAGE, 0.5x TBE.

Series [5] addresses RccR (PA5438), RpiR family transcription factor of Pseudomonas aeruginosa PAO1 (Pseudomonas aeruginosa PAO1). Nature of the series: crystal structure.

For the substance “GGCTTGCTCCAGGGCGGAAAGGCTTCCAGAATCGGATGCCATAGGTGAGCGGCCGGCCTCGTGGGCGACCGCAGCTAATTCTTGGATGTTCTCCGGGGGTGTACCCGGCGACTTGTAGTTTTACTACAGATCAGTCTGAGAAACAGCCCTCTGGATACAATTTTTAGTAGTAAAACTACATTTCGATTGTCGCTGTCAGGCTATAAGGCCCGATGT (double strand) [aceE promoter]”, the binding entry in series [1] is reported as “no binding”; in series [2], “no binding”; in series [3] it was “binds”; in series [4], “no binding”.
Turning to “RccR (PA5438), RpiR family transcription factor of Pseudomonas aeruginosa PAO1 (natural protein)”, in series [5], the stoichiometry N is 4.
Regarding “TGTTTGCCTCACTCTGCTCTAGACCAGCTCTGGACCCGGGCCGCACGGCCTTGTAGTCCGAGCCGCGGCATACTACATGATGCCGCGGGAAAAATCAGTGGTTACGCGTCGCGTTACGACTGGATGACGCTTCACGGTCACGTTGGCCAGGCTCAATGTTCGCAAAAAAACTGTACTTTGTTCCAGATAAATCTAAAAACAGTACACGATTTATCACGAGCCCA (double strand) [glcB promoter]”, the binding entry in series [3] is “binds”.
